The target of this series is Gli1 (from hisSUMO-Gli1, Addgene 87225, His-SUMO tag cleaved) (UniProt P08151 234-388). The series is described as follows: SPR. Background: In SPR one partner is held on a chip, and binding of the other changes the refractive index at the surface.
Sequence of Gli1 (from hisSUMO-Gli1, Addgene 87225, His-SUMO tag cleaved) (P08151 234-388): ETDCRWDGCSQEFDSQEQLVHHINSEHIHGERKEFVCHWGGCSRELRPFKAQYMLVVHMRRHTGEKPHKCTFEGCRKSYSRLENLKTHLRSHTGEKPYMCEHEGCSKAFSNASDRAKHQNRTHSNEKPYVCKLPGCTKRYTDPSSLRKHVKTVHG

B1: biotinylated GLI1 consensus dsDNA (SPR) (dsDNA)
DNA 1: ACGTGGACCACCCAAGACGAA
DNA 2: TTTCGTCTTGGGTGGTCCACGT
Turning to B1, the binding result is “binds”.

Source of the values: PMC7873571.
